For orientation: Kd means the free concentration of one partner at which half of the binding sites on the other are occupied at equilibrium, for simple one-to-one binding. Read a low Kd as tighter binding. As a reminder, the koff is the rate constant with which the complex falls apart. For orientation: kon means a measure of how fast the partners come together. A higher kon goes with faster complex formation.

Sequences and labels used below:
B1: 38E4 v2 (antibody, V domains shown)
VH: EVQLVQSGAEVKKPGASVKVSCKASGFTFTSYYIHWVRQAPGQGLEWIGWIYPENDNTKYNEKFKDRVTITADTSTSTAYLELSSLRSEDTAVYYCARDAYSRYYFDYWGQGTLVTVSS
VL: DIVMTQSPDSLAVSLGERATINCKSSQSLLNSRTRKNYLAWYQQKPGQSPKLLIYWTSTRKSGVPDRFSGSGSGTDFTLTISSLQAEDVAVYYCKQSFILRTFGQGTKVEIK
B2: 38E4 v6 (antibody, V domains shown)
VH: B1 VH with D99T, A100G
VL: B1 VL
B3: 38E4 v9 (antibody, V domains shown)
VH: B1 VH with A100G, Y104A
VL: B1 VL
B4: 38E4 v7 (antibody, V domains shown)
VH: B1 VH with A100G, Y105A
VL: B1 VL
B5: 38E4 v8 (antibody, V domains shown)
VH: B1 VH with D99S, A100G
VL: B1 VL
B6: 38E4 v4 (antibody, V domains shown)
VH: B1 VH with A100G
VL: B1 VL with Q96A
B7: 38E4 v3 (antibody, V domains shown)
VH: B1 VH with A100G
VL: B1 VL with I99A
B8: 38E4 v5 (antibody, V domains shown)
VH: B1 VH with A100G
VL: B1 VL with F98A
B9: 40G5c Fab (Fab, V domains shown)
VH: B1 VH with F27Y, S31N, E54G, N55D, D56G, D66G, V68A, I70L, A100S, R103N
VL: B1 VL with S49P, T57A, K61E, K95T
B10: 38E4v3 Fab (Fab, V domains shown)
VH: B1 VH with A100G
VL: B1 VL with I99A
B11: 38E4v5 Fab (Fab, V domains shown)
VH: B1 VH with A100G
VL: B1 VL with F98A
B12: 38E4v6 Fab (Fab, V domains shown)
VH: B1 VH with D99T, A100G
VL: B1 VL
B13: 38E4v2 Fab (Fab, V domains shown)
VH: B1 VH
VL: B1 VL
B14: 38E4v9 Fab (Fab, V domains shown)
VH: B1 VH with A100G, Y104A
VL: B1 VL
B15: 38E4v8 Fab (Fab, V domains shown)
VH: B1 VH with D99S, A100G
VL: B1 VL
B16: 38E4v7 Fab (Fab, V domains shown)
VH: B1 VH with A100G, Y105A
VL: B1 VL
B17: 38E4v4 Fab (Fab, V domains shown)
VH: B1 VH with A100G
VL: B1 VL with Q96A
B18: 127B3 (antibody, IgG3, V domains shown)
VH: QVQLQQSGSELVRPGASLKLSCKASGYTFTSYWMHWVRQRPGQGLEWIGNFYPGDLTVNYDEKFKNKVTLAVDTSSSTAFLQLSSLTSEDSAVYYCTRDAYSRYFFDYWGQGTTLTVSS
VL: DIVMTQSPSSLAVSAGEKVTMSCKSSQSLLNSRTRKNYLAWYQQKPGQSPKLLIYWASTRESGVPDRFTGSGSGTDFTLTISSVQTEDLAVYYCCQSFILRTFGGGTKLEIK
notes: mouse hybridoma clone
B19: 95A2 (antibody, IgG3, V domains shown)
VH: QVQLQQSGPEMVKPGASVTISCKTSGFTFTSYYIHWMMQRPGQGLEWIGWLYPGDVSTRYNEKFRDKATLTADKSSTTAYLYLSSLTSEDSAVYFCARDSSASYYFDFWGQGTTLTVSS
VL: B18 VL with K18M, M21L, S22H, S32I, Q43L, K51R, E61A, T86P, C95T, I111L
notes: mouse hybridoma clone
B20: 40D2 (antibody, IgG2b, V domains shown)
VH: QVQLQQSGPELVKPGASLKISCKASGYSFANYYTHWVRQRPGQGLEWIGWLYPGNGDTRYNEKFKDKATLTADTSSNTASMQLNSLTSEDSAVYYCTRDSYGNYFFDYWGQGTTLIVSS
VL: B18 VL with Y55F, T86A, C95K, I111L
notes: mouse hybridoma clone
B21: 39B7 (antibody, IgG2b, V domains shown)
VH: QVQLQQSGPELVKPGTSVKISCKTSGYNFINYYTHWVKQRPGQGLEWIGWIYPGNGNIKYNEKFMGKATLTADTSSTTAHMHLSSLVSEDSAVYYCARDSYGSYYFDYWGQGTTLTVSS
VL: B18 VL with S22T, T86A, C95K
notes: mouse hybridoma clone
B22: 118G9 (antibody, IgG3, V domains shown)
VH: QVQLQQPGSELVRPGASVTLSCTASGYSFTSYWMHWVKQRPGQGLEWVGNIYPGGEIINYAEKFKTKGTLTVDISSSTAYMHLSSLTSDDSAVYYCTRDTTGNYFFDYWGQGTTLTVSS
VL: B18 VL with Q48L, D66E, C95T, K108R
notes: mouse hybridoma clone
B23: 79B7 (antibody, IgG3, V domains shown)
VH: B18 VH with F51S, T57N
VL: B18 VL
notes: mouse hybridoma clone

Positions count from the first letter of the chain named.

The first test concerns the target T1, single chain human CD3ε-26mer-CD3γ (CD3εγ) (human).
T1 construct: also called human CD3εγ
T1 chain: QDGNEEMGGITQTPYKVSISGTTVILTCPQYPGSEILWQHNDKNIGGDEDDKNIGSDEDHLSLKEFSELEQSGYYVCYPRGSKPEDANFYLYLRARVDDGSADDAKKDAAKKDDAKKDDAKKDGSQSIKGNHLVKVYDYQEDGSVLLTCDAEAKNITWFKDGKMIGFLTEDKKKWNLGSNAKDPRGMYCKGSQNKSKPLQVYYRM
The experiment in a line: Biacore, human CD3εγ on chip, antibody in flow-through. Background: SPR reads the build-up and loss of mass on a sensor chip optically.
B1: binding was put at a Kd of 1.6 nM, the off-rate constant (koff) came out at 0.0036 s⁻¹ and the kon came to 2.29e+06 M⁻¹ s⁻¹.
For B2, in that order: 34 nM, 0.0017 s⁻¹ and 51100 M⁻¹ s⁻¹.
Consider B3, for which the dissociation constant (Kd) amounted to 229 nM, the off-rate constant (koff) is 0.0166 s⁻¹ and the kon turned out to be 72600 M⁻¹ s⁻¹.
For B4, in that order: 87 nM, 0.0246 s⁻¹ and 283000 M⁻¹ s⁻¹.
For B5, in that order: 180 nM, 0.202 s⁻¹ and 1.12e+06 M⁻¹ s⁻¹.
The corresponding values for B6 are 10 nM, 0.0034 s⁻¹ and 325000 M⁻¹ s⁻¹.
As for B7, the Kd stood at 3.4 nM, the off-rate constant (koff) came out at 0.014 s⁻¹ and the association rate constant (kon) amounted to 4.11e+06 M⁻¹ s⁻¹.
For B8, the Kd was found to be 11 nM, the off-rate (koff) was 0.0225 s⁻¹ and the kon was found to be 2.05e+06 M⁻¹ s⁻¹.

In the next test the target is T1, single chain human CD3ε-26mer-CD3γ …. The experiment in a line: Biacore, human CD3εγ on chip, Fab in flow through. Here is the method: Binding affinities for the each of the CD3/CD20 TDBs were tested by Biacore or FACS analysis, as described above for the anti-CD3 antibodies. Briefly, for Biacore binding assays, human CD3εγ was immobilized on Biacore Series S CM5 sensor chip using the amine coupling kit from Biacore and CD3/CD20 TDBs or Fab variants thereof were in the flow through. For FACS binding assays, either Bjab cells (for B cell antigens) or Jurkat cells (for CD3 antigen) were incubated with various concentrations of TDB antibodies at 4° C. for 30 minutes, then cells were washed and incubated with 2nd antibody (anti-huIgG-PE; BD Bioscience) for another 15 minutes, before cells were washed again and ready for FACS analysis.
The molecule B9 showed a dissociation constant Kd of 63.2 nM, a koff of 0.0253 s⁻¹ and a kon of 401000 M⁻¹ s⁻¹.
The corresponding values for B10 are 3.4 nM, 0.014 s⁻¹ and 4.11e+06 M⁻¹ s⁻¹.
B11 gave a Kd of 11 nM, a dissociation rate constant (koff) of 0.0225 s⁻¹ and an association rate constant (kon) of 2.05e+06 M⁻¹ s⁻¹.
The molecule B12 showed an equilibrium dissociation constant (Kd) of 34.2 nM, a dissociation rate constant (koff) of 0.00175 s⁻¹ and a kon of 51100 M⁻¹ s⁻¹.
B13 had a dissociation constant (Kd) of 1.6 nM, an off-rate (koff) of 0.00359 s⁻¹ and an on-rate (kon) of 2.29e+06 M⁻¹ s⁻¹.
The corresponding values for B14 are 229 nM, 0.0166 s⁻¹ and 72600 M⁻¹ s⁻¹.
The corresponding values for B15 are 180 nM, 0.202 s⁻¹ and 1.12e+06 M⁻¹ s⁻¹.
For B16, binding was characterised by a dissociation constant (Kd) of 87 nM, the off-rate constant (koff) came out at 0.0246 s⁻¹ and the association rate constant (kon) was determined as 283000 M⁻¹ s⁻¹.
The molecule B17 gave a Kd of 10.3 nM, an off-rate (koff) of 0.00336 s⁻¹ and a kon of 325000 M⁻¹ s⁻¹.

Another test deals with CD3 antigen of Figures 3B and 3C (not named). Description: kinetic table of IgGs; method and antigen not stated.
B18 displayed a Kd of 0.744 nM, an off-rate (koff) of 9.67e-05 s⁻¹ and a kon of 130000 M⁻¹ s⁻¹.
In the case of B19, the Kd worked out at 0.0644 nM, the koff came to 1.87e-05 s⁻¹ and the kon stood at 290000 M⁻¹ s⁻¹.
Take B20: the Kd amounted to 0.563 nM, the koff worked out at 0.000111 s⁻¹ and the kon came out at 197000 M⁻¹ s⁻¹.
For B21, in that order: 0.331 nM, 7.31e-05 s⁻¹ and 220000 M⁻¹ s⁻¹.
For B22, in that order: 0.209 nM, 3.74e-05 s⁻¹ and 179000 M⁻¹ s⁻¹.
B23 yielded a Kd of 0.224 nM, an off-rate (koff) of 3.41e-05 s⁻¹ and a kon of 152000 M⁻¹ s⁻¹.

The values above are taken from patent publication US20200299408A1 (Genentech, published 2020).
